This is an account of results in publication PMC6821830.

This assay concerns the target TopBP1 BRCT1-6 (UniProt Q92547). The assay is described as follows: GST-TopBP1 pull-down from cell extract, blot. The settings on record: reference: wild-type MEFs, IR-treated; sites S29.

As to “E2F1 (mouse) (from UniProt Q61501) E2f1 S29A knock-in MEFs, IR-treated”, the “binding against the reference” value was “lost”.
